This is an account of results in PMC3718016.

Among the targets are SRPK1(ΔNCT) (UniProt Q96SB4); SRPK1(ΔNNT) (UniProt Q96SB4); SRPK1(ΔSINT) (UniProt Q96SB4); SRPK1(ΔSα1) (UniProt Q96SB4); SRPK1(ΔSα2) (UniProt Q96SB4).
Assay [1] deals with SRPK1(ΔN), SRPK1 without the N-terminus (UniProt Q96SB4).
For assay [2], the target named is SRPK1(ΔS), SRPK1 without the spacer insert domain (UniProt Q96SB4).

In the case of “SR protein splicing factor 1 (SRSF1) (from UniProt Q07955 1-248) (natural protein)”, the Km for SRSF1 (KSR), steady-state phosphorylation of SRSF1 in assay [1] came to 0.44 µM; with SRPK1(ΔNCT), 0.41 µM; with SRPK1(ΔNNT), 0.038 µM; in assay [2], 0.14 µM. Also, the results for the kcat/KSR (steady-state kinetics with maximum viscosity effect) with SRPK1(ΔSINT), with SRPK1(ΔSα1) and with SRPK1(ΔSα2) were 5.3e+06 M⁻¹ s⁻¹, 2.2e+06 M⁻¹ s⁻¹ and 6.9e+06 M⁻¹ s⁻¹, respectively.
